From patent US20110165145A1, “IGF-II/IGF-IIE BINDING PROTEINS” (priority 2008, published 2011)

Target: insulin-like growth factor I (IGF-I) (UniProt P05019)
Experiment: cell-based or functional assay

Sequence of insulin-like growth factor I (IGF-I) (P05019 49-118 limits assumed): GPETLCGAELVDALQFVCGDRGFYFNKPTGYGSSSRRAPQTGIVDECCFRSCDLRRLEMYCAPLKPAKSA

IGF-I stimulated Ba/F3 cell proliferation: 30 % inhibition
Substance: Neu-IGF-II antibody (anti-IGF-II antibody, R&D system Cat# MAB292)
